Data on 54 molecules can be found in PMC314469, “Protein Interaction Networks by Proteome Peptide Scanning” (PLoS Biology, 2004).

The chains are these.
T1: Abp1 SH3 (ABP1_YEAST), P15891
T1 chain: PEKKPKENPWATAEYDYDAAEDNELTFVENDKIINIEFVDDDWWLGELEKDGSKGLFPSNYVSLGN

B1: YLR193C 56-68 (peptide)
chain: LKKSGKLPTWVKP
B2: YDR176W 173-185 (peptide)
chain: LQVHRDQPREKRP
B3: YIL108W 388-400 (peptide)
chain: LPQDYYDPSFMRP
B4: YKL105C 259-271 (peptide)
chain: LQEDLHDPLEFKP
B5: YDR174W 207-219 (peptide)
chain: LQHAAEPPVEKRP
B6: YBR050C 283-296 (peptide)
chain: LKLSNISHHSPVKP
B7: YKR047W 79-91 (peptide)
chain: LLRLRPRPLLLRP
B8: YFR013W 73-85 (peptide)
chain: LKERANKPKRKRP
B9: YKL209C 357-370 (peptide)
chain: LTFANVSFSYPSRP
B10: YLR022C 137-149 (peptide)
chain: LQELKFSPVINKP
B11: YGL003C 218-231 (peptide)
chain: LQSQFFDSMSPVRP
B12: YOR059C 245-258 (peptide)
chain: LNALNVNSHAPTKP
B13: YOL008W 135-148 (peptide)
chain: LISKWTIMPHPNRP
B14: YNL091W 1210-1222 (peptide)
chain: LNDPTATPFTSRP
B15: YKL101W 858-870 (peptide)
chain: LQKKNDRPSPLKP
B16: YFL021W 256-268 (peptide)
chain: LLRRNPSPSIVKP
B17: YIR006C 225-238 (peptide)
chain: LQPQNQAPLEPLKP
B18: YNL061W 602-614 (peptide)
chain: LLKKGVNPKAKRP
B19: YDL140C 236-248 (peptide)
chain: LTSLPVPPPPVRP
B20: YPR107C 19-32 (peptide)
chain: LRQEYSFSLDPDRP
B21: YPL063W 179-191 (peptide)
chain: LLPPPPPPPYQRP
B22: YKR084C 74-87 (peptide)
chain: LKKTLKKKKTPKKP
B23: YJL005W 199-211 (peptide)
chain: LSTVNPAPANRKP
B24: YDR425W 249-262 (peptide)
chain: LNNLLAPPLSPTKP
B25: YBR118W 226-239 (peptide)
chain: LLEAIDAIEQPSRP
B26: YLL031C 923-935 (peptide)
chain: LTLWSQPPDVLKP
B27: YBR133C 322-335 (peptide)
chain: LLQEDSRIMPPLKP
B28: YNL068C 392-405 (peptide)
chain: LSLNKAFEKVPRRP
B29: YGR184C 639-652 (peptide)
chain: LLSKVHDPNIPLRP
B30: YJL141C 497-510 (peptide)
chain: LKPENILLSAPDKP
B31: YMR156C 126-139 (peptide)
chain: LSHRLWLYAAPKRP
B32: YOL028C 50-62 (peptide)
chain: LSKNWELPQRLKP
B33: YDR266C 568-581 (peptide)
chain: LKSLNLPQLPPPKP
B34: YOR244W 327-340 (peptide)
chain: LSKKENKVGSPEKP
B35: YNR014W 72-85 (peptide)
chain: LNVSAPVVADPTRP
B36: YBR289W 754-767 (peptide)
chain: LRNTTTYKSRPDRP
B37: YLR436C 877-890 (peptide)
chain: LNLQHQLEYWPHRP
B38: YLR152C 193-205 (peptide)
chain: LTEITKLPNITRP
B39: YML113W 123-136 (peptide)
chain: LLQQQRVDVVPPKP
B40: YOL003C 52-65 (peptide)
chain: LSYYLAISTNPGRP
B41: YCL008C 171-184 (peptide)
chain: LQQEQNTPPLPPKP
B42: YGL131C 434-446 (peptide)
chain: LNDSMFFPYPFKP
B43: YOR081C 655-668 (peptide)
chain: LRLKKSPLKVPSRP
B44: YKR056W 387-400 (peptide)
chain: LLRENTTILDPSKP
B45: YOR098C 23-35 (peptide)
chain: LKSFFTNPNKKRP
B46: YFL007W 20-33 (peptide)
chain: LSQLKRFERSPGRP
B47: YDL180W 44-56 (peptide)
chain: LLHQYDDPLMFKP
B48: YBR083W 422-434 (peptide)
chain: LSKVRGRPMYPRP
B49: YCR012W 192-205 (peptide)
chain: LKYFGKALENPTRP
B50: YOR147W 33-45 (peptide)
chain: LITRLRVPTIKRP
B51: YBL052C 441-454 (peptide)
chain: LSRKESKFGTPEKP
B52: YPR013C 154-166 (peptide)
chain: LMMPVMVPTVYKP
B53: YIL168W 85-97 (peptide)
chain: LNSSVVVPKTTKP
B54: YDL033C 6-19 (peptide)
chain: LNLIGRRSASPYRP

This test concerns the target T1, Abp1 SH3 (ABP1_YEAST), P15891. The test is described as follows: SPOT array.
As to B1, the normalised SPOT signal, Boehringer light units (BLU); mean over the file's lines of this peptide stood at 40.8.

Take B2: the normalised SPOT signal, Boehringer light units (BLU); mean over the file's lines of this peptide came out at 140.

With B3, the normalised SPOT signal, Boehringer light units (BLU); mean over the file's lines of this peptide was found to be 153.

B4: the normalised SPOT signal, Boehringer light units (BLU); mean over the file's lines of this peptide came out at 74.4.

Turning to B5, the normalised SPOT signal, Boehringer light units (BLU); mean over the file's lines of this peptide is 54.2.

With B6, the normalised SPOT signal, Boehringer light units (BLU); mean over the file's lines of this peptide came to 103.

Take B7: the normalised SPOT signal, Boehringer light units (BLU); mean over the file's lines of this peptide stood at 249.

B8 gave a normalised SPOT signal, Boehringer light units (BLU); mean over the file's lines of this peptide of 157.

Consider B9, for which the normalised SPOT signal, Boehringer light units (BLU); mean over the file's lines of this peptide worked out at 100.

B10 showed a normalised SPOT signal, Boehringer light units (BLU); mean over the file's lines of this peptide of 66.

Molecule B11 yielded a normalised SPOT signal, Boehringer light units (BLU); mean over the file's lines of this peptide of 67.6.

Turning to B12, the normalised SPOT signal, Boehringer light units (BLU); mean over the file's lines of this peptide amounted to 171.

In turn, B13 gave a normalised SPOT signal, Boehringer light units (BLU); mean over the file's lines of this peptide of 1030.

In the case of B14, the normalised SPOT signal, Boehringer light units (BLU); mean over the file's lines of this peptide stood at 130.

B15 came in with a normalised SPOT signal, Boehringer light units (BLU); mean over the file's lines of this peptide of 450.

Molecule B16 displayed a normalised SPOT signal, Boehringer light units (BLU); mean over the file's lines of this peptide of 1070.

Take B17: the normalised SPOT signal, Boehringer light units (BLU); mean over the file's lines of this peptide worked out at 25.4.

B18 returned a normalised SPOT signal, Boehringer light units (BLU); mean over the file's lines of this peptide of 54.3.

In turn, B19 registered a normalised SPOT signal, Boehringer light units (BLU); mean over the file's lines of this peptide of 68.5.

The molecule B20 gave a normalised SPOT signal, Boehringer light units (BLU); mean over the file's lines of this peptide of 144.

B21 yielded a normalised SPOT signal, Boehringer light units (BLU); mean over the file's lines of this peptide of 111.

In the case of B22, the normalised SPOT signal, Boehringer light units (BLU); mean over the file's lines of this peptide was 163.

Regarding B23, the normalised SPOT signal, Boehringer light units (BLU); mean over the file's lines of this peptide amounted to 171.

The molecule B24 came in with a normalised SPOT signal, Boehringer light units (BLU); mean over the file's lines of this peptide of 79.6.

B25 registered a normalised SPOT signal, Boehringer light units (BLU); mean over the file's lines of this peptide of 41.3.

For B26, the normalised SPOT signal, Boehringer light units (BLU); mean over the file's lines of this peptide amounted to 104.

In the case of B27, the normalised SPOT signal, Boehringer light units (BLU); mean over the file's lines of this peptide was 185.

Regarding B28, the normalised SPOT signal, Boehringer light units (BLU); mean over the file's lines of this peptide was 854.

As to B29, the normalised SPOT signal, Boehringer light units (BLU); mean over the file's lines of this peptide was 135.

With B30, the normalised SPOT signal, Boehringer light units (BLU); mean over the file's lines of this peptide was 7.9.

For B31, the normalised SPOT signal, Boehringer light units (BLU); mean over the file's lines of this peptide turned out to be 171.

B32 yielded a normalised SPOT signal, Boehringer light units (BLU); mean over the file's lines of this peptide of 1040.

Molecule B33 registered a normalised SPOT signal, Boehringer light units (BLU); mean over the file's lines of this peptide of 40.9.

Regarding B34, the normalised SPOT signal, Boehringer light units (BLU); mean over the file's lines of this peptide was 32.6.

Molecule B35 yielded a normalised SPOT signal, Boehringer light units (BLU); mean over the file's lines of this peptide of 156.

On to B36, for which the normalised SPOT signal, Boehringer light units (BLU); mean over the file's lines of this peptide stood at 273.

As to B37, the normalised SPOT signal, Boehringer light units (BLU); mean over the file's lines of this peptide came to 97.9.

B38 returned a normalised SPOT signal, Boehringer light units (BLU); mean over the file's lines of this peptide of 150.

Turning to B39, the normalised SPOT signal, Boehringer light units (BLU); mean over the file's lines of this peptide came out at 140.

B40: the normalised SPOT signal, Boehringer light units (BLU); mean over the file's lines of this peptide is 40.5.

B41 came in with a normalised SPOT signal, Boehringer light units (BLU); mean over the file's lines of this peptide of 82.6.

On to B42, for which the normalised SPOT signal, Boehringer light units (BLU); mean over the file's lines of this peptide is 50.6.

For B43, the normalised SPOT signal, Boehringer light units (BLU); mean over the file's lines of this peptide came out at 452.

Consider B44, for which the normalised SPOT signal, Boehringer light units (BLU); mean over the file's lines of this peptide is 177.

B45: the normalised SPOT signal, Boehringer light units (BLU); mean over the file's lines of this peptide was determined as 323.

B46 registered a normalised SPOT signal, Boehringer light units (BLU); mean over the file's lines of this peptide of 524.

The molecule B47 returned a normalised SPOT signal, Boehringer light units (BLU); mean over the file's lines of this peptide of 19.6.

In the case of B48, the normalised SPOT signal, Boehringer light units (BLU); mean over the file's lines of this peptide came out at 382.

Molecule B49 yielded a normalised SPOT signal, Boehringer light units (BLU); mean over the file's lines of this peptide of 117.

As to B50, the normalised SPOT signal, Boehringer light units (BLU); mean over the file's lines of this peptide was found to be 748.

In turn, B51 yielded a normalised SPOT signal, Boehringer light units (BLU); mean over the file's lines of this peptide of 75.9.

For the molecule B52, the normalised SPOT signal, Boehringer light units (BLU); mean over the file's lines of this peptide is 188.

The molecule B53 yielded a normalised SPOT signal, Boehringer light units (BLU); mean over the file's lines of this peptide of 114.

B54 gave a normalised SPOT signal, Boehringer light units (BLU); mean over the file's lines of this peptide of 144.
